We go through 27 molecules from patent US11499162B2, “Plants having increased tolerance to herbicides” (BASF SE, priority 2016, dated 2022).

B1: I217A: mutated TriA variant of SEQ ID NO: 2 (protein)
chain: MQTLSIQHGTLVTMDQYRRVLGDSWVHVQDGRIVALGVHAESVPPPADRVIDARGKVVLPGFINAHTHVNQILLRGGPSHGRQLYDWLFNVLYPGQKAMRPEDVAVAVRLYCAEAVRSGITTINDNADSAIYPGNIEAAMAVYGEVGVRVVYARMFFDRMDGRIQGYVDALKARSPQVELCSIMEETAVAKDRITALSDQYHGTAGGRISVWPAPAATPAVTVEGMRWAQAFARDRAVMWTLHMAESDHDERLHWMSPAEYMECYGLLDERLQVAHCVYFDRKDVRLLHRHNVKVASQVVSNAYLGSGVAPVPEMVERGMAVGIGTDDGNCNDSVNMIGDMKFMAHIHRAVHRDADVLTPEKILEMATIDGARSLGMDHEIGSIETGKRADLILLDLRHPQTTPHHHLAATIVFQAYGNEVDTVLIDGNVVMENRRLSFLPPERELAFLEEAQSRATAILQRANMVANPAWRSL
modifications: Pseudomonas
B2: I217VP219GH249N: mutated TriA variant of SEQ ID NO: 2 (protein)
chain: B1 chain with A217V, P219G, H249N
modifications: Pseudomonas
B3: E246Q: mutated TriA variant of SEQ ID NO: 2 (protein)
chain: B1 chain with A217I, E246Q
modifications: Pseudomonas
B4: D248G: mutated TriA variant of SEQ ID NO: 2 (protein)
chain: B1 chain with A217I, D248G
modifications: Pseudomonas
B5: S247N: mutated TriA variant of SEQ ID NO: 2 (protein)
chain: B1 chain with A217I, S247N
modifications: Pseudomonas
B6: E246D: mutated TriA variant of SEQ ID NO: 2 (protein)
chain: B1 chain with A217I, E246D
modifications: Pseudomonas
B7: H249I: mutated TriA variant of SEQ ID NO: 2 (protein)
chain: B1 chain with A217I, H249I
modifications: Pseudomonas
B8: H249V: mutated TriA variant of SEQ ID NO: 2 (protein)
chain: B1 chain with A217I, H249V
modifications: Pseudomonas
B9: E246T: mutated TriA variant of SEQ ID NO: 2 (protein)
chain: B1 chain with A217I, E246T
modifications: Pseudomonas
B10: S247A: mutated TriA variant of SEQ ID NO: 2 (protein)
chain: B1 chain with A217I, S247A
modifications: Pseudomonas
B11: A220G: mutated TriA variant of SEQ ID NO: 2 (protein)
chain: B1 chain with A217I, A220G
modifications: Pseudomonas
B12: S247V: mutated TriA variant of SEQ ID NO: 2 (protein)
chain: B1 chain with A217I, S247V
modifications: Pseudomonas
B13: P219GH249N: mutated TriA variant of SEQ ID NO: 2 (protein)
chain: B1 chain with A217I, P219G, H249N
modifications: Pseudomonas
B14: A220S: mutated TriA variant of SEQ ID NO: 2 (protein)
chain: B1 chain with A217I, A220S
modifications: Pseudomonas
B15: I217S: mutated TriA variant of SEQ ID NO: 2 (protein)
chain: B1 chain with A217S
modifications: Pseudomonas
B16: A220T: mutated TriA variant of SEQ ID NO: 2 (protein)
chain: B1 chain with A217I, A220T
modifications: Pseudomonas
B17: N70C: mutated TriA variant of SEQ ID NO: 2 (protein)
chain: B1 chain with N70C, A217I
modifications: Pseudomonas
B18: I217T: mutated TriA variant of SEQ ID NO: 2 (protein)
chain: B1 chain with A217T
modifications: Pseudomonas
B19: H249N: mutated TriA variant of SEQ ID NO: 2 (protein)
chain: B1 chain with A217I, H249N
modifications: Pseudomonas
B20: D248N: mutated TriA variant of SEQ ID NO: 2 (protein)
chain: B1 chain with A217I, D248N
modifications: Pseudomonas
B21: S247P: mutated TriA variant of SEQ ID NO: 2 (protein)
chain: B1 chain with A217I, S247P
modifications: Pseudomonas
B22: F157AA220G: mutated TriA variant of SEQ ID NO: 2 (protein)
chain: B1 chain with F157A, A217I, A220G
modifications: Pseudomonas
B23: N70G: mutated TriA variant of SEQ ID NO: 2 (protein)
chain: B1 chain with N70G, A217I
modifications: Pseudomonas
B24: D248S: mutated TriA variant of SEQ ID NO: 2 (protein)
chain: B1 chain with A217I, D248S
modifications: Pseudomonas
B25: D250E: mutated TriA variant of SEQ ID NO: 2 (protein)
chain: B1 chain with A217I, D250E
modifications: Pseudomonas
B26: E246S: mutated TriA variant of SEQ ID NO: 2 (protein)
chain: B1 chain with A217I, E246S
modifications: Pseudomonas
B27: S247G: mutated TriA variant of SEQ ID NO: 2 (protein)
chain: B1 chain with A217I, S247G
modifications: Pseudomonas

Numbering of substitutions follows the chain as printed. Names and notes keep the numbering of the source.

The data set is classed as biochemical. Conditions: pH 7.2. In short, it runs like this:
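E. coli resting cells expressing His-tagged TriA incubated with azines, melamine or atrazine. Enzyme in 25 mM sodium phosphate pH 7.2 at 30 °C, substrate 1–10 nM. Loss of parent and formation of OH-metabolite followed by UPLC-HR-MS; % degradation relative to empty-vector cells.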
As to B1, the “Degradation in % of 6-cyclopentyl-N4-(2,3,4,5,6-pentafluorophenyl)-1,3,5-triazine-2,4-diamine” value is on record as 4% and the “Degradation in % of Melamine” value is reported as 100%.
On to B2, for which the “Degradation in % of 6-cyclopentyl-N4-(2,3,4,5,6-pentafluorophenyl)-1,3,5-triazine-2,4-diamine” value is reported as 0% and the “Degradation in % of Melamine” value was determined as 8%.
For B3, in that order: 0% and 4%.
For B4, in that order: 0% and 7%.
For B5, in that order: 2% and 0%.
With B6, the “Degradation in % of 6-cyclopentyl-N4-(2,3,4,5,6-pentafluorophenyl)-1,3,5-triazine-2,4-diamine” value was 5% and the “Degradation in % of Melamine” value came to 0%.
The like results for B7 were, in that order, 1% and 100%.
As for B8, the “Degradation in % of 6-cyclopentyl-N4-(2,3,4,5,6-pentafluorophenyl)-1,3,5-triazine-2,4-diamine” value worked out at 0% and the “Degradation in % of Melamine” value was 100%.
For B9, the “Degradation in % of 6-cyclopentyl-N4-(2,3,4,5,6-pentafluorophenyl)-1,3,5-triazine-2,4-diamine” value is on record as 3% and the “Degradation in % of Melamine” value was found to be 0%.
In the case of B10, the “Degradation in % of 6-cyclopentyl-N4-(2,3,4,5,6-pentafluorophenyl)-1,3,5-triazine-2,4-diamine” value is 0% and the “Degradation in % of Melamine” value was 1%.
With B11, the “Degradation in % of 6-cyclopentyl-N4-(2,3,4,5,6-pentafluorophenyl)-1,3,5-triazine-2,4-diamine” value is listed as 0% and the “Degradation in % of Melamine” value turned out to be 0%.
Regarding B12, the “Degradation in % of 6-cyclopentyl-N4-(2,3,4,5,6-pentafluorophenyl)-1,3,5-triazine-2,4-diamine” value is on record as 2% and the “Degradation in % of Melamine” value was 3%.
On to B13, for which the “Degradation in % of 6-cyclopentyl-N4-(2,3,4,5,6-pentafluorophenyl)-1,3,5-triazine-2,4-diamine” value is 0% and the “Degradation in % of Melamine” value was 2%.
The like results for B14 were, in that order, 3% and 0%.
For B15, in that order: 3% and 100%.
As for B16, the “Degradation in % of 6-cyclopentyl-N4-(2,3,4,5,6-pentafluorophenyl)-1,3,5-triazine-2,4-diamine” value is 1% and the “Degradation in % of Melamine” value was 6%.
For B17, the “Degradation in % of 6-cyclopentyl-N4-(2,3,4,5,6-pentafluorophenyl)-1,3,5-triazine-2,4-diamine” value is listed as 0% and the “Degradation in % of Melamine” value came out at 0%.
For B18, the “Degradation in % of 6-cyclopentyl-N4-(2,3,4,5,6-pentafluorophenyl)-1,3,5-triazine-2,4-diamine” value came to 3% and the “Degradation in % of Melamine” value was found to be 100%.
For B19, in that order: 0% and 1%.
The like results for B20 were, in that order, 4% and 11%.
Take B21: the “Degradation in % of 6-cyclopentyl-N4-(2,3,4,5,6-pentafluorophenyl)-1,3,5-triazine-2,4-diamine” value was 0% and the “Degradation in % of Melamine” value came out at 3%.
Turning to B22, the “Degradation in % of 6-cyclopentyl-N4-(2,3,4,5,6-pentafluorophenyl)-1,3,5-triazine-2,4-diamine” value is listed as 0% and the “Degradation in % of Melamine” value is on record as 0%.
Take B23: the “Degradation in % of 6-cyclopentyl-N4-(2,3,4,5,6-pentafluorophenyl)-1,3,5-triazine-2,4-diamine” value was 0% and the “Degradation in % of Melamine” value is recorded as 0%.
For B24, the “Degradation in % of 6-cyclopentyl-N4-(2,3,4,5,6-pentafluorophenyl)-1,3,5-triazine-2,4-diamine” value is recorded as 3% and the “Degradation in % of Melamine” value came out at 20%.
In the case of B25, the “Degradation in % of 6-cyclopentyl-N4-(2,3,4,5,6-pentafluorophenyl)-1,3,5-triazine-2,4-diamine” value is 2% and the “Degradation in % of Melamine” value was found to be 3%.
Consider B26, for which the “Degradation in % of 6-cyclopentyl-N4-(2,3,4,5,6-pentafluorophenyl)-1,3,5-triazine-2,4-diamine” value was determined as 1% and the “Degradation in % of Melamine” value was found to be 0%.
As to B27, the “Degradation in % of 6-cyclopentyl-N4-(2,3,4,5,6-pentafluorophenyl)-1,3,5-triazine-2,4-diamine” value turned out to be 2% and the “Degradation in % of Melamine” value is given as 2%.
